From the Human Domainome abundance scans (Beltran et al. 2025)
± gives the uncertainty stated by the source.

Assay: abundance fitness (aPCA) (normalised: wild type 0, dead -1); higher = more abundant; growth selection in yeast, the domain comes from the species named
Conditions: Homo sapiens

Row | Substance | abundance fitness
1 | DnaJ homolog subfamily B member 1 L29Q, P25685 | 0.086 ± 0.18
2 | DnaJ homolog subfamily B member 1 L29R, P25685 | -0.06 ± 0.077
3 | DnaJ homolog subfamily B member 1 L29S, P25685 | -0.138 ± 0.058
4 | DnaJ homolog subfamily B member 1 L29T, P25685 | -0.131 ± 0.072
5 | DnaJ homolog subfamily B member 1 L29V, P25685 | -0.052 ± 0.076
6 | DnaJ homolog subfamily B member 1 L29W, P25685 | -0.111 ± 0.068
7 | DnaJ homolog subfamily B member 1 L29Y, P25685 | -0.008 ± 0.089
8 | DnaJ homolog subfamily B member 1 L55C, P25685 | -0.788 ± 0.2
9 | DnaJ homolog subfamily B member 1 L55E, P25685 | -0.752 ± 0.099
10 | DnaJ homolog subfamily B member 1 L55F, P25685 | -0.649 ± 0.1
11 | DnaJ homolog subfamily B member 1 L55G, P25685 | -0.687 ± 0.081
12 | DnaJ homolog subfamily B member 1 L55H, P25685 | -0.686 ± 0.14
13 | DnaJ homolog subfamily B member 1 L55I, P25685 | -0.354 ± 0.11
14 | DnaJ homolog subfamily B member 1 L55K, P25685 | -0.781 ± 0.11
15 | DnaJ homolog subfamily B member 1 L55M, P25685 | -0.464 ± 0.11
16 | DnaJ homolog subfamily B member 1 L55N, P25685 | -0.603 ± 0.17
17 | DnaJ homolog subfamily B member 1 L55P, P25685 | -0.705 ± 0.088
18 | DnaJ homolog subfamily B member 1 L55Q, P25685 | -0.747 ± 0.1
19 | DnaJ homolog subfamily B member 1 L55R, P25685 | -0.769 ± 0.069
20 | DnaJ homolog subfamily B member 1 L55S, P25685 | -0.524 ± 0.086
21 | DnaJ homolog subfamily B member 1 L55T, P25685 | -0.636 ± 0.1
22 | DnaJ homolog subfamily B member 1 L55V, P25685 | -0.347 ± 0.08
23 | DnaJ homolog subfamily B member 1 L55W, P25685 | -0.932 ± 0.1
24 | DnaJ homolog subfamily B member 1 L55Y, P25685 | -0.873 ± 0.16
25 | DnaJ homolog subfamily B member 1 N36A, P25685 | 0.038 ± 0.084
26 | DnaJ homolog subfamily B member 1 N36C, P25685 | 0.124 ± 0.17

Row | Substance | abundance fitness
27 | DnaJ homolog subfamily B member 1 N36D, P25685 | -0.221 ± 0.12
28 | DnaJ homolog subfamily B member 1 N36E, P25685 | -0.174 ± 0.084
29 | DnaJ homolog subfamily B member 1 N36F, P25685 | -0.415 ± 0.12
30 | DnaJ homolog subfamily B member 1 N36G, P25685 | -0.029 ± 0.08
31 | DnaJ homolog subfamily B member 1 N36H, P25685 | 0.002 ± 0.11
32 | DnaJ homolog subfamily B member 1 N36I, P25685 | -0.181 ± 0.13
33 | DnaJ homolog subfamily B member 1 N36K, P25685 | -0.112 ± 0.085
34 | DnaJ homolog subfamily B member 1 N36L, P25685 | 0.009 ± 0.054
35 | DnaJ homolog subfamily B member 1 N36M, P25685 | 0.035 ± 0.13
36 | DnaJ homolog subfamily B member 1 N36P, P25685 | -0.096 ± 0.086
37 | DnaJ homolog subfamily B member 1 N36R, P25685 | -0.14 ± 0.093
38 | DnaJ homolog subfamily B member 1 N36S, P25685 | 0.079 ± 0.06
39 | DnaJ homolog subfamily B member 1 N36T, P25685 | 0.092 ± 0.1
40 | DnaJ homolog subfamily B member 1 N36V, P25685 | -0.158 ± 0.088
41 | DnaJ homolog subfamily B member 1 N36W, P25685 | -0.097 ± 0.099
42 | DnaJ homolog subfamily B member 1 N36Y, P25685 | -0.195 ± 0.11
43 | DnaJ homolog subfamily B member 1 P33A, P25685 | -0.055 ± 0.075
44 | DnaJ homolog subfamily B member 1 P33C, P25685 | -0.11 ± 0.1
45 | DnaJ homolog subfamily B member 1 P33E, P25685 | -0.096 ± 0.087
46 | DnaJ homolog subfamily B member 1 P33F, P25685 | -0.207 ± 0.093
47 | DnaJ homolog subfamily B member 1 P33G, P25685 | 0.017 ± 0.064
48 | DnaJ homolog subfamily B member 1 P33H, P25685 | -0.292 ± 0.15
49 | DnaJ homolog subfamily B member 1 P33I, P25685 | -0.085 ± 0.097
50 | DnaJ homolog subfamily B member 1 P33L, P25685 | -0.091 ± 0.056
51 | DnaJ homolog subfamily B member 1 P33M, P25685 | 0.039 ± 0.079
52 | DnaJ homolog subfamily B member 1 P33N, P25685 | -0.009 ± 0.094

Row | Substance | abundance fitness
53 | DnaJ homolog subfamily B member 1 P33Q, P25685 | 0.057 ± 0.1
54 | DnaJ homolog subfamily B member 1 P33R, P25685 | -0.06 ± 0.078
55 | DnaJ homolog subfamily B member 1 P33S, P25685 | 0.018 ± 0.083
56 | DnaJ homolog subfamily B member 1 P33V, P25685 | -0.078 ± 0.076
57 | DnaJ homolog subfamily B member 1 P33W, P25685 | -0.455 ± 0.096
58 | DnaJ homolog subfamily B member 1 P33Y, P25685 | -0.245 ± 0.11
59 | DnaJ homolog subfamily B member 1 P39A, P25685 | -0.037 ± 0.074
60 | DnaJ homolog subfamily B member 1 P39C, P25685 | -0.016 ± 0.15
61 | DnaJ homolog subfamily B member 1 P39D, P25685 | -0.339 ± 0.27
62 | DnaJ homolog subfamily B member 1 P39E, P25685 | 0.064 ± 0.097
63 | DnaJ homolog subfamily B member 1 P39F, P25685 | -0.041 ± 0.2
64 | DnaJ homolog subfamily B member 1 P39G, P25685 | -0.287 ± 0.16
65 | DnaJ homolog subfamily B member 1 P39H, P25685 | 0.054 ± 0.28
66 | DnaJ homolog subfamily B member 1 P39I, P25685 | -0.038 ± 0.15
67 | DnaJ homolog subfamily B member 1 P39K, P25685 | 0.027 ± 0.14
68 | DnaJ homolog subfamily B member 1 P39N, P25685 | 0.035 ± 0.12
69 | DnaJ homolog subfamily B member 1 P39R, P25685 | 0.041 ± 0.1
70 | DnaJ homolog subfamily B member 1 P39S, P25685 | -0.078 ± 0.069
71 | DnaJ homolog subfamily B member 1 P39T, P25685 | 0.133 ± 0.13
72 | DnaJ homolog subfamily B member 1 P39V, P25685 | 0.001 ± 0.12
73 | DnaJ homolog subfamily B member 1 P39W, P25685 | 0.026 ± 0.12
74 | DnaJ homolog subfamily B member 1 P39Y, P25685 | -0.222 ± 0.14
75 | DnaJ homolog subfamily B member 1 P58A, P25685 | -0.081 ± 0.09
76 | DnaJ homolog subfamily B member 1 P58C, P25685 | -0.256 ± 0.22
77 | DnaJ homolog subfamily B member 1 P58D, P25685 | -0.332 ± 0.14
78 | DnaJ homolog subfamily B member 1 P58E, P25685 | -0.149 ± 0.086

Row | Substance | abundance fitness
79 | DnaJ homolog subfamily B member 1 P58F, P25685 | -0.407 ± 0.25
80 | DnaJ homolog subfamily B member 1 P58G, P25685 | -0.238 ± 0.079
81 | DnaJ homolog subfamily B member 1 P58H, P25685 | -0.192 ± 0.19
82 | DnaJ homolog subfamily B member 1 P58I, P25685 | -0.256 ± 0.16
83 | DnaJ homolog subfamily B member 1 P58K, P25685 | 0.021 ± 0.31
84 | DnaJ homolog subfamily B member 1 P58L, P25685 | -0.163 ± 0.057
85 | DnaJ homolog subfamily B member 1 P58N, P25685 | -0.306 ± 0.2
86 | DnaJ homolog subfamily B member 1 P58Q, P25685 | -0.18 ± 0.097
87 | DnaJ homolog subfamily B member 1 P58R, P25685 | -0.11 ± 0.073
88 | DnaJ homolog subfamily B member 1 P58S, P25685 | -0.112 ± 0.089
89 | DnaJ homolog subfamily B member 1 P58T, P25685 | -0.143 ± 0.14
90 | DnaJ homolog subfamily B member 1 P58V, P25685 | -0.191 ± 0.094
91 | DnaJ homolog subfamily B member 1 P58W, P25685 | -0.236 ± 0.085
92 | DnaJ homolog subfamily B member 1 P58Y, P25685 | -0.229 ± 0.13
93 | DnaJ homolog subfamily B member 1 Q7A, P25685 | -0.386 ± 0.12
94 | DnaJ homolog subfamily B member 1 Q7C, P25685 | 0.031 ± 0.13
95 | DnaJ homolog subfamily B member 1 Q7E, P25685 | -0.547 ± 0.13
96 | DnaJ homolog subfamily B member 1 Q7F, P25685 | 0.066 ± 0.11
97 | DnaJ homolog subfamily B member 1 Q7G, P25685 | -0.315 ± 0.21
98 | DnaJ homolog subfamily B member 1 Q7H, P25685 | -0.246 ± 0.15
99 | DnaJ homolog subfamily B member 1 Q7I, P25685 | -0.144 ± 0.17
100 | DnaJ homolog subfamily B member 1 Q7K, P25685 | -0.014 ± 0.12
101 | DnaJ homolog subfamily B member 1 Q7L, P25685 | -0.049 ± 0.057
102 | DnaJ homolog subfamily B member 1 Q7N, P25685 | 0.019 ± 0.13
103 | DnaJ homolog subfamily B member 1 Q7P, P25685 | -0.567 ± 0.088
